Results taken from patent US20110263454A1, “Methods of Identifying Functional Characteristics of Promoters, Transcription Modifying Proteins and Transcription Modulating Agents” (Salk Institute for Biological Studies, priority 2008, published 2011).

B1: hMR: Mineralocorticoid Receptor (NR3C2, MR), cDNA driver (protein, UniProt P08235 1-984, looked up)
Mineralocorticoid receptor: METKGYHSLPEGLDMERRWGQVSQAVERSSLGPTERTDENNYMEIVNVSCVSGAIPNNSTQGSSKEKQELLPCLQQDNNRPGILTSDIKTELESKELSATVAESMGLYMDSVRDADYSYEQQNQQGSMSPAKIYQNVEQLVKFYKGNGHRPSTLSCVNTPLRSFMSDSGSSVNGGVMRAVVKSPIMCHEKSPSVCSPLNMTSSVCSPAGINSVSSTTASFGSFPVHSPITQGTPLTCSPNVENRGSRSHSPAHASNVGSPLSSPLSSMKSSISSPPSHCSVKSPVSSPNNVTLRSSVSSPANINNSRCSVSSPSNTNNRSTLSSPAASTVGSICSPVNNAFSYTASGTSAGSSTLRDVVPSPDTQEKGAQEVPFPKTEEVESAISNGVTGQLNIVQYIKPEPDGAFSSSCLGGNSKINSDSSFSVPIKQESTKHSCSGTSFKGNPTVNPFPFMDGSYFSFMDDKDYYSLSGILGPPVPGFDGNCEGSGFPVGIKQEPDDGSYYPEASIPSSAIVGVNSGGQSFHYRIGAQGTISLSRSARDQSFQHLSSFPPVNTLVESWKSHGDLSSRRSDGYPVLEYIPENVSSSTLRSVSTGSSRPSKICLVCGDEASGCHYGVVTCGSCKVFFKRAVEGQHNYLCAGRNDCIIDKIRRKNCPACRLQKCLQAGMNLGARKSKKLGKLKGIHEEQPQQQQPPPPPPPPQSPEEGTTYIAPAKEPSVNTALVPQLSTISRALTPSPVMVLENIEPEIVYAGYDSSKPDTAENLLSTLNRLAGKQMIQVVKWAKVLPGFKNLPLEDQITLIQYSWMCLSSFALSWRSYKHTNSQFLYFAPDLVFNEEKMHQSAMYELCQGMHQISLQFVRLQLTFEEYTIMKVLLLLSTIPKDGLKSQAAFEEMRTNYIKELRKMVTKCPNNSGQSWQRFYQLTKLLDSMHDLVSDLLEFCFYTFRESHALKVEFPAMLVEIISDQLPKVESGNAKPLYFHRK
B2: PR: Progesterone Receptor (NR3C3), cDNA driver (protein, UniProt P06401 1-933, looked up)
Progesterone receptor: MTELKAKGPRAPHVAGGPPSPEVGSPLLCRPAAGPFPGSQTSDTLPEVSAIPISLDGLLFPRPCQGQDPSDEKTQDQQSLSDVEGAYSRAEATRGAGGSSSSPPEKDSGLLDSVLDTLLAPSGPGQSQPSPPACEVTSSWCLFGPELPEDPPAAPATQRVLSPLMSRSGCKVGDSSGTAAAHKVLPRGLSPARQLLLPASESPHWSGAPVKPSPQAAAVEVEEEDGSESEESAGPLLKGKPRALGGAAAGGGAAAVPPGAAAGGVALVPKEDSRFSAPRVALVEQDAPMAPGRSPLATTVMDFIHVPILPLNHALLAARTRQLLEDESYDGGAGAASAFAPPRSSPCASSTPVAVGDFPDCAYPPDAEPKDDAYPLYSDFQPPALKIKEEEEGAEASARSPRSYLVAGANPAAFPDFPLGPPPPLPPRATPSRPGEAAVTAAPASASVSSASSSGSTLECILYKAEGAPPQQGPFAPPPCKAPGASGCLLPRDGLPSTSASAAAAGAAPALYPALGLNGLPQLGYQAAVLKEGLPQVYPPYLNYLRPDSEASQSPQYSFESLPQKICLICGDEASGCHYGVLTCGSCKVFFKRAMEGQHNYLCAGRNDCIVDKIRRKNCPACRLRKCCQAGMVLGGRKFKKFNKVRVVRALDAVALPQPVGVPNESQALSQRFTFSPGQDIQLIPPLINLLMSIEPDVIYAGHDNTKPDTSSSLLTSLNQLGERQLLSVVKWSKSLPGFRNLHIDDQITLIQYSWMSLMVFGLGWRSYKHVSGQMLYFAPDLILNEQRMKESSFYSLCLTMWQIPQEFVKLQVSQEEFLCMKVLLLLNTIPLEGLRSQTQFEEMRSSYIRELIKAIGLRQKGVVSSSQRFYQLTKLLDNLHDLVKQLHLYCLNTFIQSRALSVEFPEMMSEVIAAQLPKILAGMVKPLLFHKK
B3: NR4a2: NR4a2 (NR4A2; NURR1), nuclear hormone receptor cDNA driver (protein, UniProt P43354 1-598, looked up)
Nuclear receptor subfamily 4 …: MPCVQAQYGSSPQGASPASQSYSYHSSGEYSSDFLTPEFVKFSMDLTNTEITATTSLPSFSTFMDNYSTGYDVKPPCLYQMPLSGQQSSIKVEDIQMHNYQQHSHLPPQSEEMMPHSGSVYYKPSSPPTPTTPGFQVQHSPMWDDPGSLHNFHQNYVATTHMIEQRKTPVSRLSLFSFKQSPPGTPVSSCQMRFDGPLHVPMNPEPAGSHHVVDGQTFAVPNPIRKPASMGFPGLQIGHASQLLDTQVPSPPSRGSPSNEGLCAVCGDNAACQHYGVRTCEGCKGFFKRTVQKNAKYVCLANKNCPVDKRRRNRCQYCRFQKCLAVGMVKEVVRTDSLKGRRGRLPSKPKSPQEPSPPSPPVSLISALVRAHVDSNPAMTSLDYSRFQANPDYQMSGDDTQHIQQFYDLLTGSMEIIRGWAEKIPGFADLPKADQDLLFESAFLELFVLRLAYRSNPVEGKLIFCNGVVLHRLQCVRGFGEWIDSIVEFSSNLQNMNIDISAFSCIAALAMVTERHGLKEPKRVEELQNKIVNCLKDHVTFNNGGLNRPNYLSKLLGKLPELRTLCTQGLQRIFYLKLEDLVPPPAIIDKLFLDTLPF
B4: NR4a3: NR4a3 (NR4A3; NOR1), nuclear hormone receptor cDNA driver (protein, UniProt Q92570 1-626, looked up)
Nuclear receptor subfamily 4 …: MPCVQAQYSPSPPGSSYAAQTYSSEYTTEIMNPDYTKLTMDLGSTEITATATTSLPSISTFVEGYSSNYELKPSCVYQMQRPLIKVEEGRAPSYHHHHHHHHHHHHHHQQQHQQPSIPPASSPEDEVLPSTSMYFKQSPPSTPTTPAFPPQAGALWDEALPSAPGCIAPGPLLDPPMKAVPTVAGARFPLFHFKPSPPHPPAPSPAGGHHLGYDPTAAAALSLPLGAAAAAGSQAAALESHPYGLPLAKRAAPLAFPPLGLTPSPTASSLLGESPSLPSPPSRSSSSGEGTCAVCGDNAACQHYGVRTCEGCKGFFKRTVQKNAKYVCLANKNCPVDKRRRNRCQYCRFQKCLSVGMVKEVVRTDSLKGRRGRLPSKPKSPLQQEPSQPSPPSPPICMMNALVRALTDSTPRDLDYSRYCPTDQAAAGTDAEHVQQFYNLLTASIDVSRSWAEKIPGFTDLPKEDQTLLIESAFLELFVLRLSIRSNTAEDKFVFCNGLVLHRLQCLRGFGEWLDSIKDFSLNLQSLNLDIQALACLSALSMITERHGLKEPKRVEELCNKITSSLKDHQSKGQALEPTESKVLGALVELRKICTLGLQRIFYLKLEDLVSPPSIIDKLFLDTLPF

How the values were obtained:
hMyoD promoter = assay: NHR-promoter luciferase screen, hMyoD promoter; type: cell-based, human; conditions: for Luc. act., normalized to lacZ / Normalized Luc. act., normalized to control: MyoD promoter reporter, co-transfected HR, without or with its ligand; for Normalized Luc. act., normalized to control: relative to control; for luciferase activity normalized to lacZ activity and to a control, hMyoD: hMyoD promoter-luciferase, CV-1 cells, NHR +/- ligand, control = 1.00
In short: (§1)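 CV-1 cells were co-transfected with 50 ng NHR (homodimer or NHR/RXR heterodimer), 100 ng promoter-luciferase construct and 50 ng LacZ. Luciferase was normalized to LacZ and to a no-NHR/no-ligand control.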

mPer1 promoter = assay: NHR-promoter luciferase screen, mPer1 promoter; type: cell-based, mouse; conditions: for Luc. act., normalized to lacZ / Normalized Luc. act., normalized to control: Per1 promoter reporter, co-transfected HR, with or without its ligand; for Normalized Luc. act., normalized to control: relative to control; for luciferase activity normalized to lacZ activity and to a control, mPer1: mPer1 promoter-luciferase, CV-1 cells, NHR +/- ligand, control = 1.00
In short: as §1

mAgrp promoter = assay: NHR-promoter luciferase screen, mAgrp promoter; type: cell-based, mouse; conditions: for Results of assays of transcription factor (+/- ligand) with mAgrp: Table 6d, luciferase activity relative to control (control = 1.00); for Luc. act., normalized to lacZ / Normalized Luc. act., normalized to control: mAgrp promoter, HR component with or without ligand; for Normalized Luc. act., normalized to control: relative to control
In short: as §1

mAdiponectin promoter = assay: NHR-promoter luciferase screen, mAdiponectin promoter; type: cell-based, mouse; conditions: for Luc. act., normalized to lacZ / Normalized Luc. act., normalized to control: Adiponectin, HR component without or with its ligand; for mAdiponectin promoter reporter activity: transcription factor +/- ligand, control = 1.00
In short: as §1

mDio1 promoter = assay: NHR-promoter luciferase screen, mDio1 promoter; type: cell-based, mouse; conditions: for Luc. act., normalized to lacZ / Normalized Luc. act., normalized to control: Dio1, HR component without or with its ligand; for mDio1 promoter reporter activity: transcription factor +/- ligand, control = 1.00
In short: as §1

Bmal1 promoter = assay: NHR-promoter luciferase screen, Bmal1 promoter; type: cell-based, mouse; conditions: for Luc. act., normalized to lacZ / Normalized Luc. act., normalized to control: Bmal1 promoter, HR component without or with ligand; for mBmal1 promoter reporter activity: transcription factor +/- ligand, control = 1.00
In short: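 Luciferase activity was measured 48 h after transfection, normalized to LacZ and then to a control lacking NHR or ligand. CV-1 cells carried 100 ng Bmal1 reporter, 50 ng NHR construct and 50 ng LacZ.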

Molecule	Luc. act., normalized to lacZ (hMyoD promoter)	Normalized Luc. act., normalized to control (hMyoD promoter)	luciferase activity normalized to lacZ activity and to a control, hMyoD (hMyoD promoter)	Luc. act., normalized to lacZ (mPer1 promoter)	Normalized Luc. act., normalized to control (mPer1 promoter)	luciferase activity normalized to lacZ activity and to a control, mPer1 (mPer1 promoter)	Results of assays of transcription factor (+/- ligand) with mAgrp (mAgrp promoter)	Luc. act., normalized to lacZ (mAgrp promoter)	Normalized Luc. act., normalized to control (mAgrp promoter)	Luc. act., normalized to lacZ (mAdiponectin promoter)	Normalized Luc. act., normalized to control (mAdiponectin promoter)	mAdiponectin promoter reporter activity (mAdiponectin promoter)	Luc. act., normalized to lacZ (mDio1 promoter)	Normalized Luc. act., normalized to control (mDio1 promoter)	mDio1 promoter reporter activity (mDio1 promoter)	Luc. act., normalized to lacZ (Bmal1 promoter)	Normalized Luc. act., normalized to control (Bmal1 promoter)	mBmal1 promoter reporter activity (Bmal1 promoter)
B1	37.1	0.6	0.59	351.9	2.4	2.44	0.79	31.2	0.8	32.3	0.5	0.51	2.4	0.5	0.55	18.2	1.2	1.17
B2	70.4	1.1	1.11	207.4	1.4	1.44	1.13	44.7	1.1	52.9	0.8	0.84	7.8	1.8	1.75	17.9	1.1	1.14
B3	51.9	0.8	0.82	155.3	1.1	1.08	0.88	35.1	0.9	35.8	0.6	0.57	6.3	1.4	1.41	8.1	0.5	0.52
B4	56.1	0.9	0.89	139.6	1.0	0.97	0.88	34.7	0.9	35.7	0.6	0.57	6.6	1.5	1.48	7.5	0.5	0.48
